Assay results taken from patent US20240010735A1 (EISAI R AND D MANAGEMENT, published 2024).

What was measured:
[1] = target: T1, mouse EphA4 extracellular region-SEAP-His protein (mouse); test: ELISA: EphA4 extracellular region-SEAP-His (1 nM) captured on anti-alkaline phosphatase antibody, antibody B titrated with human IgG 100 µg/mL, HRP anti-human IgG, OD450 as % of top concentration
T1 construct: also called mouse EphA4 extracellular region-SEAP-His 10
Method: (§1) Anti-alkaline phosphatase antibodies (Thermo […]) were coated onto the wells of a 96-well plate (Nunc). After incubating at 4° C. overnight, the wells were blocked at room temperature for 1 hour by 1% Block Ace (DS Pharma Biomedical). After washing 3 times with 0.05% Tween 20/PBS (Thermo […]), mouse, rat, monkey, and human EphA4 extracellular region-SEAP-His proteins (final concentration 1 nM) were seeded into the wells, and incubated at room temperature for 1 hour. After washing 3 times, human IgG solution (100 μg/mL, Mitsubishi Pharma Corporation) and antibody B (0, 0.00013, 0.00064, 0.0032, 0.016, 0.08, 0.4, 2, 10 μg/mL) were supplemented to the wells, and incubated at room temperature for 1 hour. Horseradish peroxidase-labeled donkey anti-human IgG antibody (Jackson ImmunoResearch Laboratories) was added, and incubated at room, temperature for 1 hour. After washing 3 times, TMBZ (3,3′,5,5′-tetramethylbenzidine, Sigma) solution was added to the wells, and upon confirmation of modest coloring, an equal amount of quenching solution (1 N H₂SO₄, Wako Pure Chemicals) was added to the wells, and absorbance at 450 nm was read by a microplate reader (PerkinElmer).

[2] = target: T2, monkey EphA4 extracellular region-SEAP-His protein (monkey); test: as above
T2 construct: Its preparation is not described; not shown: secretory alkaline phosphatase (SEAP); histidine tag
T2 sequence (chain, as listed by the source): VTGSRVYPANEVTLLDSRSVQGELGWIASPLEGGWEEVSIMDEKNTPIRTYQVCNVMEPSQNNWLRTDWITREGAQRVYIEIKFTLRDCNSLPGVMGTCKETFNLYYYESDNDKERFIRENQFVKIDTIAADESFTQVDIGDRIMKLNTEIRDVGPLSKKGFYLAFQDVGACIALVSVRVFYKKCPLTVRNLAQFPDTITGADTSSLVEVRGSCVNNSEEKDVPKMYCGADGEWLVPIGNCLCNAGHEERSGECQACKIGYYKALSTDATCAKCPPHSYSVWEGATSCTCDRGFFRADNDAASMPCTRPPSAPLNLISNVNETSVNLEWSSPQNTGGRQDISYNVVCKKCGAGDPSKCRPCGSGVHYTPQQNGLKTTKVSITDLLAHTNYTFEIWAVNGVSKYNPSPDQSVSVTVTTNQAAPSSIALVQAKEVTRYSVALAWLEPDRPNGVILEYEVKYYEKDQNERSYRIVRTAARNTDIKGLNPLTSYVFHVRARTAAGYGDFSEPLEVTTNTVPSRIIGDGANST
Method: as §1

[3] = target: T3, human EphA4 extracellular region-SEAP-His protein (human, UniProt P54764 20-547); test: as above
T3 construct: also called human EphA4 extracellular region-SEAP-His 10; not shown: secretory alkaline phosphatase (SEAP); histidine tag
T3 sequence (P54764 20-547): as the sequence (chain, as listed by the source) above, with S406N counted along it
Method: as §1

[4] = target: T4, rat EphA4 extracellular region-SEAP-His protein (rat, UniProt D3ZZK3 20-547); test: as above
T4 construct: extracellular domain; Its preparation is not described; the limits 20-547 are stated for the Fc-His construct of rat EphA4; not shown: secretory alkaline phosphatase (SEAP); histidine tag
T4 sequence (D3ZZK3 entry or part of it): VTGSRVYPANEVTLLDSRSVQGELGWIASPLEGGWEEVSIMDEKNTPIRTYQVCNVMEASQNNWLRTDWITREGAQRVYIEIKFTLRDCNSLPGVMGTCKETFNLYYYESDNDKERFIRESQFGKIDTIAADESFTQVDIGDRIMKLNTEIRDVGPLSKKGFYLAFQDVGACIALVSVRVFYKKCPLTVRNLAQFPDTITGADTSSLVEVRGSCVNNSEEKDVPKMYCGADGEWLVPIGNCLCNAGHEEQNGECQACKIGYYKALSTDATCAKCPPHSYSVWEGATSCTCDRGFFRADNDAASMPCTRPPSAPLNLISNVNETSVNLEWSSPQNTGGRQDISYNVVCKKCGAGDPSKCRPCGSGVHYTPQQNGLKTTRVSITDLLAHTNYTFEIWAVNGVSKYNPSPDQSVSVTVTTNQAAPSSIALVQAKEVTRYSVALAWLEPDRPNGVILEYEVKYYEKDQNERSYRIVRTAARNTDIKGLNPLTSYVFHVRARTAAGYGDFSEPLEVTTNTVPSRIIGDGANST
Method: as §1

[5] = target: T3, human EphA4 extracellular …; test: SPR (Biacore T200): human EphA4 extracellular region-SEAP-His captured on anti-His antibody, antibody A 1.6-100 nM as analyte, 1:1 fit
Method: The binding affinity of antibody A against mouse and human EphA4 was determined by surface plasmon resonance (SPR method) employing Biacore T200 (GE Healthcare). First, anti-His antibodies (GE Healthcare, 28-9950-56) were fixed to a sensor chip CM5. Fixation was carried out by amine coupling method employing N-hydroxysuccinimide (NHS) and N-ethyl-N′-(3-dimethylaminopropyl) carbodiimide hydrochloride salt (EDC), and ethanolamine was employed for blocking (the sensor chip and reagents for fixation are all from GE Healthcare). This was diluted with the fixation buffer (10 mM sodium acetate, pH 4.5) to 3.5 μg/mL, and fixed onto the sensor chip according to the protocol accompanying Biacore T200. Mouse or human EphA4 extracellular region-SEAP-His 10 was diluted with the running buffer HBS-EP (GE Healthcare, BR-1001-88), and the solution was sent and captured onto the flow cell for 120 seconds (about 10 RU of captured amount). […] Fitting analysis by 1:1 binding model employing the software accompanying the system, BIA evaluation software, was carried out against the binding reaction curve obtained, and the binding affinity (KD=kd/ka) against mouse and human EphA4 was calculated.

[6] = target: T1, mouse EphA4 extracellular …; test: SPR, Biacore T200; EphA4 extracellular region-SEAP-His captured on anti-His chip, antibody as analyte, 1:1 model
Method: The binding affinity of antibody A against mouse and human EphA4 was determined by surface plasmon resonance (SPR method) employing Biacore T200 (GE Healthcare). First, anti-His antibodies (GE Healthcare, 28-9950-56) were fixed to a sensor chip CM5. Fixation was carried out by amine coupling method employing N-hydroxysuccinimide (NHS) and N-ethyl-N′-(3-dimethylaminopropyl) carbodiimide hydrochloride salt (EDC), and ethanolamine was employed for blocking (the sensor chip and reagents for fixation are all from GE Healthcare). This was diluted with the fixation buffer (10 mM sodium acetate, pH 4.5) to 3.5 μg/mL, and fixed onto the sensor chip according to the protocol accompanying Biacore T200. Mouse or human EphA4 extracellular region-SEAP-His 10 was diluted with the running buffer HBS-EP (GE Healthcare, BR-1001-88), and the solution was sent and captured onto the flow cell for 120 seconds (about 10 RU of captured amount). Subsequently, antibody A serially diluted to a range of 100, 50, 25, 12.5, 6.3, 3.2, 1.6, 0 nM with HBS-EP was added to the sensor chip for 120 seconds, and the binding reaction curve at the time of addition (binding phase, 120 seconds) and after completing the addition (dissociation phase, 600 seconds) was sequentially observed. Upon completion of each observation, 4 M MgCl₂ (60 seconds, Wako Pure Chemicals) was added to regenerate the sensor chip. Fitting analysis by 1:1 binding model employing the software accompanying the system, BIA evaluation software, was carried out against the binding reaction curve obtained, and the binding affinity (KD=kd/ka) against mouse and human EphA4 was calculated.
The binding affinity of antibody B obtained in Example 1 against human EphA4 was determined by surface plasmon resonance (SPR method) employing Biacore T200 (GE Healthcare). First, anti-His antibodies (GE Healthcare, 28-9950-56) were fixed to a sensor chip CMS. […]

T1 sequence (chain, as listed by the source limits assumed): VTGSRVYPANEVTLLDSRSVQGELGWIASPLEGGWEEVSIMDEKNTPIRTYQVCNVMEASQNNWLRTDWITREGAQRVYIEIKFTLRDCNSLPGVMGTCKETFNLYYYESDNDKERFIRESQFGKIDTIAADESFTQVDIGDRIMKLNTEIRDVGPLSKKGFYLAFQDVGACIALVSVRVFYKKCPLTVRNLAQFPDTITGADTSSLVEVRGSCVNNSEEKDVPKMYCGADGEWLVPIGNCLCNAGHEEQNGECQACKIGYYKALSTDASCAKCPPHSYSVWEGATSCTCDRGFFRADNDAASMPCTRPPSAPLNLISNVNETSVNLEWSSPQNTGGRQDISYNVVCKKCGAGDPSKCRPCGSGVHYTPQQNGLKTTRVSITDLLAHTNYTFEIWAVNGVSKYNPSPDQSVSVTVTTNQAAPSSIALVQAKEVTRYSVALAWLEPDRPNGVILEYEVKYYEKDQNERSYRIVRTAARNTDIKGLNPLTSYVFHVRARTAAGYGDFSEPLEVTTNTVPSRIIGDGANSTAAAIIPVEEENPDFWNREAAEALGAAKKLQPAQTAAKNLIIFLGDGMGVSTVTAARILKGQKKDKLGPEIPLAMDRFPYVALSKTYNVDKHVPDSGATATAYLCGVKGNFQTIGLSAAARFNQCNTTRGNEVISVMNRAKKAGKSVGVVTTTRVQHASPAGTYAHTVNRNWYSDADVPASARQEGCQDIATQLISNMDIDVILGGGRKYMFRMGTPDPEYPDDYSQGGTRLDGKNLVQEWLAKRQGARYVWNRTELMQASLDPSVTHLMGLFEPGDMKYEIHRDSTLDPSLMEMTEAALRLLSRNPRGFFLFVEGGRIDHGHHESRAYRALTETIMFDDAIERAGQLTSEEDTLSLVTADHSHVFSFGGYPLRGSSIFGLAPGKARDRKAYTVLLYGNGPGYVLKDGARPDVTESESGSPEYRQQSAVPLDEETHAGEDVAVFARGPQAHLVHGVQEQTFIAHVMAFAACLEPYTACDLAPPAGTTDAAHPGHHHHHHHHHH

Row | Binder | EC50 (read off the curve) [1] | EC50 (read off the curve) [2] | EC50 (read off the curve) [3] | EC50 (read off the curve) [4] | koff [5] | kon [5] | Kd [6]
1 | humanized anti-EphA4 monoclonal antibody (antibody B) (antibody, human IgG2, V domains shown, expressed in Expi293F cells; also called humanized antibody of antibody A; HK2-42 / L1-8) VH: QVQLVESGGGVVQPGRSLRLSCAVSGFSLTRFGVHWVRQAPGKGLEWVAVIWRGGSTDYNAAFMSRLTISKDNSKNTVYLQMNSLRAEDTAVYYCAKESLFGVYYDYGYYSMDYWGQGTTVTVSS VL: DIQMTQSPSSLSASVGDRVTITCRASQEISGYLSWLQQKPGKAPKRLIYAASTLDSGVPSRFSGSRSGTEYTLTISSLQPEDFATYYCLQYASYPLTFGGGTKVEIKR | ~0.3 nM | ~0.3 nM | ~0.3 nM | ~0.3 nM |  |  | 
2 | mouse anti-EphA4 monoclonal antibody (antibody A) (antibody, mouse IgG1, kappa, V domains shown, purified from hybridoma supernatant) VH: QVQLKQSGPSLVQPSQSLSITCTVSGFSLTRYGVHWVRQSPGKGLEWLGVIWRGGSTDYNAAFMSRLSITKDNSKSQVFFKMNSLQADDTAIYYCAKESLFGVYYDYGYYSMDYWGQGTSVTVSS VL: DIQMTQSPSSLSASLGERVSLTCRASQEISGYLSWLQQKPDGTIKRLIYAASTLDSGVPKRFSGSRSGSDYSLTISSLESEDFADYYCLQYASYPLTFGAGTKLELKR |  |  |  |  | 0.000448 s⁻¹ | 379000 M⁻¹ s⁻¹ | 1.32 nM
